# Reference: paper PMC12480952 (Nature Communications, 2025)
# Numbering of substitutions follows the chain as printed. In names and notes the source's numbering stands.
# B1: BCL-2ΔLΔC WT (domain or fragment, human)
# chain: MAHAGRTGYDNREIVMKYIHYKLSQRGYEWDAGDDVEENRTEAPEGTESEVVHLTLRQAGDDFSRRYRRDFAEMSSQLHLTPFTARGRFATVVEELFRDGVNWGRIVAFFEFGGVMCVESVNREMSPLVDNIALWMTEYLNRHLHTWIQDNGGWDAFVELYGPSMRA
# B2: BCL-2ΔLΔC V156D (domain or fragment, human)
# chain: B1 chain with V115D
# B3: BCL-2ΔLΔC F104L (domain or fragment, human)
# chain: B1 chain with F63L
# B4: BCL-2ΔLΔC G101V (domain or fragment, human)
# chain: B1 chain with G60V
# B5: BCL-2ΔLΔC D103Y (domain or fragment, human)
# chain: B1 chain with D62Y
# B6: BCL-2ΔLΔC A113G (domain or fragment, human)
# chain: B1 chain with A72G
# B7: BCL-2ΔLΔC R129L (domain or fragment, human)
# chain: B1 chain with R88L
# Target: FITC-BIM BH3 (FITC at the N-terminus)
# Test: fluorescence polarisation
row,Binder,EC90
1,B1,8.6 nM
2,B2,17 nM
3,B3,1.6 nM
4,B4,5.8 nM
5,B5,21 nM
6,B6,23 nM
7,B7,8.7 nM
